In patent US6835807B1, “Drug complex and drug delivery system” (Daiichi Pharmaceuticals Co., Ltd., priority 1998, dated 2004):
Marks after values point to notes of the source that are not given here.

Key:
Meth A cells = experiment: Antineoplastic activity of the complexes of Examples 1, 5 and 6 (Example 10); type: in vivo, BALB/c mice; conditions: singly administered on the 7th day; for IR, diminution rate of the tumor: 21th day; for Average tumor weight: tumor weighed on the 21th day
Procedure: Meth A cells were transplanted into BALB/c mice to prepare Meth A tumor-bearing mice. On the 7th day after the transplantation, the drug complexes shown in Examples 1, 5 and 6 were singly administered, respectively. The weight of the tumor was measured on the 21th day to evaluate the inhibitory activity on the tumor and the toxicity. In the table, * represents significance in Dunnet's test (*** p<0.001, ** P<0.01, * P<0.05), the dose is expressed in terms of the weight of anhydrous free base of DX-8951, and IR represents the diminution rate of the tumor.

[1] = Release of the drug compound from the drug complex in buffer (Example 2); type: physicochemical; conditions: for released amount of the drug (DX-8951), percentage of the drug in the drug complex used: 37° C., 378 μg/ml, after 20 hours
Procedure: (§1) The drug complex obtained in Example 1 was dissolved in a Meth A (murine fibrosarcoma Meth A) homogenate or a buffer at 37° C. (378 μg/ml). After 20 hours, released DX-8951 was determined. The compound wherein the spacer and DX-8951 were bound to each other without p-aminobenzyloxycarbonyl group was prepared and used as a comparative compound. The released amount of the drug is expressed in percentage of the released amount of the drug to the amount of the drug in the drug complex used.

[2] = Release of the drug compound from the drug complex in mouse plasma (Example 2); type: in vitro ADME; conditions: 37° C., 378 μg/ml, after 20 hours
[3] = test system: Meth A cells (murine fibrosarcoma Meth A); experiment: Antineoplastic activity of the drug complex of Example 1 (Example 4); type: in vivo, BALB/c mice; conditions: for BWLmax, maximum body-weight reduction rate / N, mice died/mice used / IR, diminution rate of the tumor / Average tumor weight / day when the maximum body-weight reduction was observed: administered on the 7th day; for IR, diminution rate of the tumor: 21th day; for Average tumor weight: tumor weighed on the 21th day
Procedure: Meth A cells (murine fibrosarcoma Meth A) were transplanted into BALB/c mice to prepare Meth A tumor-bearing mice. On the 7th day after the transplantation, the drug complex of Example 1 was administered. The weight of the tumor was measured on the 21th day to evaluate the inhibitory activity on the tumor and the toxicity. In the table, * represents significance in Dunnet's test (*** P<0.001, ** P<0.01), the dose is expressed in terms of the weight of anhydrous free base of DX-8951, and IR represents the diminution rate of the tumor.

[4] = Release of the drug compound from the drug complex in Meth A homogenate (Example 2); type: in vitro ADME, murine; conditions: for released amount of the drug (DX-8951), percentage of the drug in the drug complex used: 37° C., 378 μg/ml, after 20 hours
Procedure: as §1

[5] = test system: Meth A tumor-bearing mice; experiment: Maximum tolerated dose (MTD) of the drug complex of Example 1 (Example 3); type: in vivo, BALB/c mice; conditions: for N, mice died/mice used / BWLmax, maximum body-weight reduction rate / day when the maximum body-weight reduction was observed: single administration on the 20th day
Procedure: Meth A cells were transplanted into BALB/c mice to prepare Meth A tumor-bearing mice. On the 20th day, single administration of the drug complex of Example 1 was carried out. After the administration, measurement of the body weight and observation of toxic death were made with time and the maximum body-weight reduction rate and mortality were calculated, which are shown in Table 2. The dose is expressed in terms of the weight of anhydrous free base of DX-8951.

[6] = Release of the drug compound from the drug complex in buffer (Example 8); type: physicochemical; conditions: for released amount of the drug (DX-8951), percentage of the drug in the drug complex used: 37° C., 50 μg/ml, after 20 hours
Procedure: (50 μg/ml). […] The released amount of the drug is expressed in percentage of the released amount of the drug to the amount of the drug in the drug complex used.

[7] = test system: Meth A tumor-bearing mice; experiment: Maximum tolerated dose of the drug complexes of Examples 5, 6 and 7 (Example 9); type: in vivo, BALB/c mice; conditions: single administration on the 13th day
Procedure: Meth A cells were transplanted into BALB/c mice to prepare Meth A tumor-bearing mice. On the 13th day, the drug complexes obtained in Examples 5, 6 and 7 were singly administered. After the administration, measurement of the body weight and observation of toxic death were made with time, and the maximum body-weight reduction rate and mortality were calculated, which are shown in Table 5. The dose is expressed in terms of the weight of anhydrous free base of DX-8951.
On the basis of the dose in which body weight reduction and death were observed, MTD of each complex were judged as follows.

## Carboxymethyldextran polyalcohol-Gly-Gly-Gly-Phe-NH-p-C6H4—CH2—O—CO-DX-8951 [Example 6]
Meth A cells; 0.15625 mg/kg
  IR, diminution rate of the tumor: 37%
  Average tumor weight: 1.645 ± 0.191* g
Meth A cells; 0.3125 mg/kg
  IR, diminution rate of the tumor: 46%
  Average tumor weight: 1.419 ± 0.163** g
Meth A cells; 0.625 mg/kg
  IR, diminution rate of the tumor: 90%
  Average tumor weight: 0.272 ± 0.066*** g
Meth A cells; 1.25 mg/kg
  IR, diminution rate of the tumor: 99%
  Average tumor weight: 0.016 ± 0.008*** g

## Carboxymethyldextran polyalcohol-Gly-Gly-Phe-Gly-NH-p-C6H4—CH2—O—CO-DX-8951 [Example 1]
[1]; Buffer (pH 4.5)
  released amount of the drug (DX-8951), percentage of the drug in the drug complex used: 0.190%
[1]; Buffer (pH 5.5)
  released amount of the drug (DX-8951), percentage of the drug in the drug complex used: 0.178%
[1]; Buffer (pH 6.5)
  released amount of the drug (DX-8951), percentage of the drug in the drug complex used: 0.171%
[1]; Buffer (pH 7.5)
  released amount of the drug (DX-8951), percentage of the drug in the drug complex used: 0.138%
[1]; buffer
  release of the drug in words: hardly released
[2]
  released amount of the drug (DX-8951), percentage of the drug in the drug complex used: 0.186%
[3]; 0.625 mg/kg
  BWLmax, maximum body-weight reduction rate: <0%
  N, mice died/mice used: 0/6
  IR, diminution rate of the tumor: 46%
  Average tumor weight: 1.247 ± 0.280** g
[3]; 1.25 mg/kg
  BWLmax, maximum body-weight reduction rate: 0.3%
  N, mice died/mice used: 0/6
  day when the maximum body-weight reduction was observed: 8 days
  IR, diminution rate of the tumor: 74%
  Average tumor weight: 0.610 ± 0.180*** g
[3]; 5 mg/kg
  BWLmax, maximum body-weight reduction rate: 2.9%
  N, mice died/mice used: 0/6
  day when the maximum body-weight reduction was observed: 13 days
  IR, diminution rate of the tumor: 99%
  Average tumor weight: 0.019 ± 0.004*** g
[3]; 7.5 mg/kg
  BWLmax, maximum body-weight reduction rate: 24.8%
  N, mice died/mice used: 2/6
  day when the maximum body-weight reduction was observed: 15 days
  IR, diminution rate of the tumor: 100%
  Average tumor weight: 0.008 ± 0.002*** g
[3]; 0.625 to 7.5 mg/kg
  effect on tumor weight in words: apparently diminished tumor weight dose-dependently
[3]; […]
  N, mice died/mice used: 0/6
[4]; Meth A homogenate (pH 4.5)
  released amount of the drug (DX-8951), percentage of the drug in the drug complex used: 37.7%
[4]; Meth A homogenate (pH 5.5)
  released amount of the drug (DX-8951), percentage of the drug in the drug complex used: 38.1%
[4]; Meth A homogenate (pH 6.5)
  released amount of the drug (DX-8951), percentage of the drug in the drug complex used: 4.25%
[4]; tables in Examples 2 and 8
  releasing rate of DX-8951 relative to the drug complex obtained in Example 5: about 113
[4]; weakly acidic homogenate
  release of the drug in words: rapidly released
Meth A cells; 0.625 mg/kg
  BWLmax, maximum body-weight reduction rate: <0%
  N, mice died/mice used: 0/6
  IR, diminution rate of the tumor: 43%
  Average tumor weight: 1.489 ± 0.215** g
Meth A cells; 1.25 mg/kg
  BWLmax, maximum body-weight reduction rate: <0%
  N, mice died/mice used: 0/6
  IR, diminution rate of the tumor: 71%
  Average tumor weight: 0.775 ± 0.207*** g
Meth A cells; 5 mg/kg
  BWLmax, maximum body-weight reduction rate: 4.0%
  N, mice died/mice used: 0/6
  day when the maximum body-weight reduction was observed: 13 days
  IR, diminution rate of the tumor: 100%
  Average tumor weight: 0.004 ± 0.001*** g
Meth A cells; 7.5 mg/kg
  BWLmax, maximum body-weight reduction rate: 26.1%
  N, mice died/mice used: 2/6
  day when the maximum body-weight reduction was observed: 16 days
  IR, diminution rate of the tumor: 100%
  Average tumor weight: 0.005 ± 0.003*** g
Meth A cells; […]
  N, mice died/mice used: 0/6
[5]; 0.156 mg/kg
  N, mice died/mice used: 0/2
[5]; 0.156 mg/kg, <0 = no reduction observed
  BWLmax, maximum body-weight reduction rate: <0%
[5]; 0.625 mg/kg
  N, mice died/mice used: 0/2
[5]; 0.625 mg/kg, <0 = no reduction observed
  BWLmax, maximum body-weight reduction rate: <0%
[5]; 10 mg/kg
  toxic death in words: toxic death of all the cases
  BWLmax, maximum body-weight reduction rate: 32.8%
  N, mice died/mice used: 2/2
  day when the maximum body-weight reduction was observed: 26 days
[5]; 30 mg/kg (as DX-8951 anhydrous free base)
  BWLmax, maximum body-weight reduction rate: 17.9%
[5]; 30 mg/kg
  N, mice died/mice used: 2/2
  day when the maximum body-weight reduction was observed: 22 days
[5]; […]
  N, mice died/mice used: 0/2

## carboxymethyldextran polyalcohol-Gly-Gly-NH-p-C6H4—CH2—O—CO-DX-8951 [Example 7]
[6]; Buffer (pH 4.5)
  released amount of the drug (DX-8951), percentage of the drug in the drug complex used: 0.15%
[6]; Buffer (pH 6.5)
  released amount of the drug (DX-8951), percentage of the drug in the drug complex used: 0.16%
[6]; buffer
  release of the drug in words: hardly released
[7]; 5 mg/kg
  BWLmax, maximum body-weight reduction rate: 25.4%
  day when the maximum body-weight reduction was observed: 18 days
[7]; 10 mg/kg
  BWLmax, maximum body-weight reduction rate: 13.7%
  day when the maximum body-weight reduction was observed: 16 days
[7]; 20 mg/kg
  BWLmax, maximum body-weight reduction rate: 14.2%
  day when the maximum body-weight reduction was observed: 16 days
[7]; 30 mg/kg
  BWLmax, maximum body-weight reduction rate: 14.6%
  day when the maximum body-weight reduction was observed: 16 days
[7]; dose as DX-8951 anhydrous free base
  MTD: <2.5 mg/kg
